Test [1] has as its target anti-hIgG (IgG2a). Briefly: SPR; Autolab ESPRIT, room temperature, PBS pH 7.4; anti-hIgG adsorbed on the Cal-4 derivative 2 (carboxylic acid) SAM on gold, blocked with 0.1 mg/mL BSA, then 100 μL of 10 μg/mL protein G.
Test [2] concerns the target anti-hIgG (IgG2a). The test is described as follows: SPR; Autolab ESPRIT, room temperature, PBS pH 7.4; anti-hIgG adsorbed on the Cal-4 derivative 1 (ethylester) SAM on gold, blocked with 0.1 mg/mL BSA, then 100 μL of 10 μg/mL protein G. (In general: Surface plasmon resonance follows binding to a sensor surface in real time, without labels.)

Our source for the SPR angle shift values is article PMC4013577.

As for “Protein G (from UniProt P06654 34-417) (natural protein)”, the values for the SPR angle shift with anti-hIgG (IgG2a) [1] and with anti-hIgG (IgG2a) [2] were 94 m° and 32.6 m°, respectively.
